B1: Charged multivesicular body protein 4a (Homo sapiens), Q9BY43 (parent)
chain: MSGLGRLFGKGKKEKGPTPEEAIQKLKETEKILIKKQEFLEQKIQQELQTAKKYGTKNKRAALQALRRKKRFEQQLAQTDGTLSTLEFQREAIENATTNAEVLRTMELAAQSMKKAYQDMDIDKVDELMTDITEQQEVAQQISDAISRPMGFGDDVDEDELLEELEELEQEELAQELLNVGDKEEEPSVKLPSVPSTHLPAGPAPKVDEDEEALKQLAEWVS

Variants of: B1
Settings: with pdc6i_human PDCD6IP

effect of a mutation on the interaction	Variant
disrupting interaction	L217A
disrupting interaction	L214A
disrupting interaction	W220A

Source: IntAct's records for PubMed 18511562
